Assay: soluble on expression in E. coli; label from the status in PepcDB or PDB records

| Sequence | soluble on expression in E. coli |
| --- | --- |
| MGSDKIHHHHHHMLDQAERLRNMALKKNAGEEIKRPVIITVTSGKGGVGKSNFVVNLSITLQQMNKKVLIFDADVGMGNDDILLGCISKYSVFDVIYNNMKIEDAIVEGPFGVKLLPGGSGITKFKDITEDQINAFVKKLASIGNFDYIIMDTGAGVNRSVLGFISCCEELIILTTPEPTSLTDAYSLFKAVVHFKIKSYAKVVINRVVDNKEGLETYKKFQSVAKKFLKADTEFLGSISEDSRIVKAVRNQTPFVVENPNCYAAKDIQYIANKLMGTTTKDNGLGIEGLFKKLFKIFS | not soluble |
| GMSDQRYNLRGVSASKEDVHNAIKNIDKGIFPKAFCKIIPDILGGDPEYCNIMHADGAGTKSSLAYMYWKETGDLSVWKGIAQDALIMNIDDLLCVGAVDNILVSSTIGRNKLLVPGEVISAIINGTDELLAELREMGVGCYATGGETADVGDLVRTIIVDSTVTCRMKRSDVIDNKNIQGGDVIVGLASSGQATYEKEYNGGMGSNGLTSARHDVFSKYLAKKYPESYDAAVPKELVYSGGLKLTDKIEELGIDAGKMVLSPTRTYAPVIKVLLDKLRSQIHGMVHCSGGAQTKVMHFVENKRVTKDNLFPIPPLFRTIQEQSGTDWSEMYKVFNMGHRMEIYIAPEHAEEVIGISKSFGIDAQIVGFVEEADKNELIIESEKGRFTY | soluble |
| MSLKRIVVANDLVGVGKVALSASIPLMASCLLEQVLLPTCLLSSHTGGGQNPVKHTTSSILDVFLTDWDNKRIKFDGIFIGYFTTTRDGQKLLEWLSRKQLPLILDPIMADNGKLYQGFSQKHIEIMIKLTQKAELVLPNISEACLLTQTAYLAKNYDEEDIRQVARKLAKLGPKQVVISGISFEEGSIGFAYYQSDSDQLTFHFGKQFPYHFYGTGDIASAIITAGFYYQLPLTQILDLVVSFLEKVLQNTLTLKRDLILGVAYESHLNYLTKSFKKLLEEKNVISKISEGHHHHHH | soluble |
| MQVSLPREDTVYIGGALWGPATTWNLYAPQSTWGTDQFMYLPAFQYDLGRDAWIPVIAERYEFVDDKTLRIYIRPEARWSDGVPITADDFVYALELTKELGIGPGGGWDTYIEYVKAVDTKVVEFKAKEENLNYFQFLSYSLGAQPMPKHVYERIRAQMNIKDWINDKPEEQVVSGPYKLYYYDPNIVVYQRVDDWWGKDIFGLPRPKYLAHVIYKDNPSASLAFERGDIDWNGLFIPSVWELWEKKGLPVGTWYKKEPYFIPDGVGFVYVNNTKPGLSDPAVRKAIAYAIPYNEMLKKAYFGYGSQAHPSMVIDLFEPYKQYIDYELAKKTFGTEDGRIPFDLDMANKILDEAGYKKGPDGVRVGPDGTKLGPYTISVPYGWTDWMMMCEMIAKNLRSIGIDVKTEFPDFSVWADRMTKGTFDLIISWSVGPSFDHPFNIYRFVLDKRLSKPVGEVTWAGDWERYDNDEVVELLDKAVSTLDPEVRKQAYFRIQQIIYRDMPSIPAFYTAHWYEYSTKYWINWPSEDNPAWFRPSPWHADAWPTLFIISKKSDPQPVPSWLGTVDEGGIEIPTAKIFEDLQKATMHHHHHH | soluble |
| MKPYLEEKLEGARKSVPGFALEELKQKIISSPIQFGKSDIDDLVSNLLKRYEQTKENSLIGKIDSIFKEISDIEKVMSAKQPEPAQQQAPVEKPKKKAKLEVIGDDVVSIMVSLRWLEFLLDNYGPENTLDVLDYYESLGWISATVKEQMMKYAKMTGVMNPAQEYKIKPSIQDHIINMLFIEKLRGEEINRDLIEALEREFRTIRKGVDELYGI | soluble |
| MAKYQSMLVVIDPNQDDQPALRRAVYLHQRIGGRIKAFLPIYDFSYEMTTLLSPDERTAMRQGVIAQRTAWIREQAKFYLESGVPIDVKVVWHNRPFEAIIQEVVSEKHDLLLKMAHQHDKLEAVIFTPTDWHLLRKCPCPVWMVKDQPWPEGGKALVAVNLASEENYHNTLNEKLVRETLSLAEEVNHTEVHLIGAYPVTPINIAIELPDFDPSVYNDAIRGQHLLAMKALRQKFGIDEKFTHVEKGLPEEVIPDLAEHLQAGIVVLGTVGRTGLSAAFLGNTAEQVVDHLRCDLLVLKPEAYQTPVELDDDDDD | not soluble |
| MDKGKGSKRSTPSLRAKKKTGTDRQKPSVKQNASQNSKKSSRQKKTPSVGKEREQATDKKREIEKKPQEKTALDEQQRKAQTETISNLEILPDKNPAKMDDGYEDFGPGAAAR | not soluble |
| MAHHHHHHMRGKRRQHRELYQAVLREQAAKAQEDAAQRRARLSWKEKLQLSFQEARESVTQLTSAKAGVMALLQHCTASHTAEVALEQGIDVKNVQMVFEKAAASNSVGVEEIVVGYIDAPGASHEEVMAFAEKLHKVCPVAKSMHIEWRQGSADSRRHEDGAVRRADGLHREMEQAASGVEWAESRTGSNLGGRSSAADAASTTSVESMPAGMPGSRRVQSSMSSRATRGGSLRDDEDKLHFPGVEKRDTAWDSTRHGSSRAKEPSTETSTASHRPPPPESASAATTQPGACSSDPASASPFPKP | soluble |
| MSLSDFDYIQKNTPPEFPEKFKTALLPENIKKNRYSDVLANDDTRVKLNNNGYINANYIFQGRMIASQAPTIETIPDFLQMIIEQQVPIVIMLTKCKEKTRIKATPYWGYKSEGGKKVFGNYTVNTIDTLYDDVEEDKFMEDIQIRYLQIIYEDGVYSFIQIHYMGWPDFGVPLNPKDALDIVYIQYIIGTTSKFSNRNLVCVHCSAGVGRTGVYCLLSRIVEMVTYEILEKSETYSKQRSTSSSSKVREVEDRIEEILLSHPVISYEDCEVILPELVLSIRNERSKMVQTKEQYDFICETVNCFYEDALDSINQYYEVIDALTEGHHHHHH | not soluble |
| AEHSHESTLVQAGERIHITAQGVSAIETIDTRTISDAWQYRHLVVQNRPLTEVLDELNRHRRGHILYDRAQLQGIDMAVVLPLDDTDRALQLLVDSLPMIRIRTLTPYLVLVDLAPA | not soluble |
| MGSDKIHHHHHHMELCTTICVDLAKQVFQLAGEDATGRVIYEDRIKSRQAFHDFLLRLPTTVAVLMECGPGAQAWARLLQAKGNPVRILPAQRVAEHRSGAKNDRNDCYAILRAGRDTSIASIPIKSTTALAIQALHRIRRGNIKRHTALGNQIRGLLLEHGVSMPQGDAAINKHVPRALEDASLPLPDLLRELLDELLMDWLSLGERITALSRRLEATAQEDKVAQRLITIRGVGPIIATAIVAKQTDPSRFASGRMYSAFFGIVPDQHSSGNKIRLGKMSKRGDGYIRSLMIQGAHSVLSQLRPDSDQPDDRRLLRWLSRLGRKEAAIRLANRNLRIIWALLQSDQVYQRKPNEKPEAAMSL | not soluble |
| RTQFKINSIPTVSDPYHINYDLTFSLNFASNKRNTYGTGWLIDWKGDENNPEKNDPFKVYLATNLHVIDALRNNNDYEPYNKDSNNQAFNSEEITRFFSIGKYTYPSIFSELNFIINAREAFVSIQTSTIPKTAYAAVNFVETQGEDESYTDSLSTDNKRDIYADFAVI | not soluble |
| MLGSRNIKFSVQIFKKRRSNCNVRCVVCGREIETGSLCGKCMVEKEEVAKIDEFEITVCSRCNLIRLGNRWVERSVEEVIEEMVLRNARVVEEFNVTEVAISQEHCVFRGEISGDEVKILVPLKYRINKVLCEKCSREAGGYYESIVQLRAAGRELSDEEIEKALEIVDEVISSAPEDQKAFISKLERKREGVNIFFGSRNIGKKVSRMIMKKLGGSITESKKLHTRIDGRDVYRFTYSVKLPEYREGDIVEKEGRFAVVRNSVAGKGLDILTGKTVNLGNERVAVRREDLKSGVVVNADPNAVEVVCEDGRLVTTPKPSGAEIGAEVKVFEINGKFFSVYEGGQSSEELEHHHHHH | soluble |
| MGSDKIHHHHHHMVKKIMLHGATDYGSSNYGDYLYGEIVYDLLESKGYEVSFYNPSDFFQMYLKEYRQKQSFTKKQADAILYIPGGYFGEGHNARFRDNLIQFKRFLPLGIWASYFKKPIGVLGIGAGPNNDSLMNYGIKRIINHAQFITVRDRESFDSLKHLSPSAPVHETFDLIISSKLREEKTEQLCQLKREAKDKKIILVHYNHSKKALEKFAESISLFLENNPNYYVVVTSDSILPYEDAYYQEFRKLVRTEDCFQFKYHSPAEMTSLLKMVDVVLTCKLHVGVVATCFNKSVIAIACHPEKTARYYGAIGELQRCESLFDSSVNSIVKKLETFHLKPITIPSELVLKARSSLDYLDLFLEGLVRES | not soluble |
| GMSSSDRYMQRGVSSQKEDVHKAIKSIDKGIYPRAFCKIIPDILGGDPEYCNIMHADGAGTKSSLAYVYWKETGDISVWKGIAQDAVIMNIDDLICVGAVDNILLSSTIGRNKNLIPGEVLAAIINGTEEVLQMLRDNGIGIYSTGGETADVGDLVRTIIVDSTVTCRMKRQDVISNENIKAGNVIVGFASYGQTSYETEYNGGMGSNGLTSARHDVFNNVLASKYPESFDPKVPENLVYSGEMNLTDPYLNVPLDAGKLVLSPTRTYAPLMKEIIHQYKGKLDGVVHCSGGGQTKVLHFTDATTHIIKDNLFDVPPLFQLIQGQSNTPWEEMYKVFNMGHRLEIYTDAAHAEGMIAIAKKFNIEAKIIGRVEAPVAGKRLTITGPQGTEYTYA | soluble |
| MDEYRELISVLPLETVEYAFAYGSGAIQQQNEDKSEKMVDFVIVTKNAQEFHRDNILKNPQHYSLLRLMGPKMIEKIQCNFAARVYYNTHVKVGKRKIKYGVISYENVKQDLLDWRWIYISGRLHKPVLEVIKPRQDMCDLVTENRRSALHSSLLLLPESFTLKQLFHKIVGLSYTGDFRMVVGEDKNKINKIVEGNYEELLRVYEPLMNDDARLSVMSPAKLIQDGSTTAIYHRLNLLPSEVLNRIQKNMNRVQKRQRDAEEVIFSLAHRHDVAATVETAIGGIIRPVSLSQTAKNAFSAGVTRSIIYSMAKMSKFLKSK | not soluble |
| MSLKEDYADVRNVMIMGGSRIAVRTAQYVPDYMQVKIVDNDINRCNRLTELLDDKTMIINGDGRDMDLLIEEGLKNTEAFVALTDNSETNILACLAAKRMGVEKTVAEVENIDYIGMAESLDIGTVINKKMIAASHIYQMMLDADVSNVKCLTFANADVAEFTVPAGAKITKNLIKDLGLPKGTTIGGMIRNGEGVLVTGDTLIRPGDHVVVFCLSMMIKKIEKFFNEGHHHHHH | not soluble |
| MAHHHHHHMSPVLVPTACEDWSLNIDDESAKRFWWNNTYSITLWEETLNIEQQAEKITDGDVWSKFIDLQLRCAFKICSICHSPEGNADMKICCYCGNTVHENCSEPAAPEQIMWKPANLAYVEHMRACFQCQAVNYKEPL | not soluble |
| MSLNGLKRGFPVMKEQIGGKLICISGIPGTGKSTICNLLNDLGYTCVEGNALAVKYGCLSGDEVDVDCLSDRMRSDNFKGIVAAHYAHLLPCNIVIILEADESALRQRMMDRGYSPEKIDENLDAQRSDTIYAESLERLPANRIFRIRNADLNVALSDILRIIGGRNEGHHHHHH | soluble |
| MGSDKIHHHHHHMLEHKIDFMVTLEVKEANANGDPLNGNMPRTDAKGYGVMSDVSIKRKIRNRLQDMGKSIFVQANERIEDDFRSLEKRFSQHFTAKTPDKEIEEKANALWFDVRAFGQVFTYLKKSIGVRGPVSISMAKSLEPIVISSLQITRSTNGMEAKNNSGRSSDTMGTKHFVDYGVYVLKGSINAYFAEKTGFSQEDAEAIKEVLVSLFENDASSARPEGSMRVCEVFWFTHSSKLGNVSSARVFDLLEYHQSIEEKSTYDAYQIHLNQEKLAKYEAKGLTLEILEGL | not soluble |
| MKRHFETTRRIVIKVGTSSLVQTSGKINLSKIDHLAFVISSLMNRGMEVILVSSGAMGFGLDILKMDKRPQEISQQQAVSSVGQVAMMSLYSQIFSHYQTHVSQILLTRDVVVFPESLQNVTNSFESLLSMGILPIVNENDAVSVDEMDHKTKFGDNDRLSAVVAKITKADLLIMLSDIDGLFDKNPNIYDDAVLRSHVSEITDDIIKSAGGAGSKFGTGGMLSKIKSAQMVFDNNGQMILMNGANPRDILKVLDGHNIGTYFAQGKLEHHHHHH | not soluble |
